Assay: soluble on expression in E. coli; label from the status in PepcDB or PDB records

Sequence | soluble on expression in E. coli
MGSDKIHHHHHHMTTYSPSQENYRELAHLLARFTSLTQIKTIFYDFTGILLKDDFVYINHSAIEDNLAQLTFSDYAVFPVSRNIQMWGAILCESVNVSKKRLFLSRSYLENLMTQIFDEDTLGKVSVWEPLTSDQVGQINNLHALFHPTGDTDPLQAVLAPNAVIAGHTIDNDEAFRSISLAIDYIQKNIQRPISLNEVAQRAYLSPSYLSRLFKKYLHVNFIEYVNNQKIALAQEKLSLTLTPINQISNQIGFTQTSYFTKIFKKKTGITPSEFRQRNHTIQKIYTIPRELNWDTNDSVIDVTKNYFKSHHITYHTDSEEGATYVNSIGELNDAKGNRGWIYTVDGQQPTQSADEIATHDKSVIQWVYTDYSN | not soluble
MGSDKIHHHHHHMRVKHFELLTDEGKTFTHVDLYGKYTILFFFPKAGTSGCTREAVEFSRENFEKAQVVGISRDSVEALKRFKEKNDLKVTLLSDPEGILHEFFNVLENGKTVRSTFLIDRWGFVRKEWRRVKVEGHVQEVKEALDRLIEEDLSLNKHIEWRRARRALKKDRVPREELELLIKAAHLAPSCMNNQPWRFVVVDEEELLKKIHEALPGGNYWMKNAPALIAVHSKKDFDCALPDNRDYFLFDTGLAVGNLLVQATQMGLVAHPVAGYDPVKVKEILKIPEDHVLITLIAVGYLGDESELSEKHRELERSERVRKELSEIVRWNL | not soluble
MTSKSVATPALDPAFQQLTAFASVHNFILVKGQADKQDLAGYNIPKLKELIVAYHNLYRSKHGAPPLVADPVMDVAAKRWADEMAKSGWISHEKPRKYGENVAMFCQSGCWPLPQTLAQAMVHLFYIEGIGYDYSSFKPELLKENGHFTQIVWKSSRKIGVGISIGKSSQPPYIPTMFHCVKFDPPGNVLAQQYYLSNVQRPTA | not soluble
MGSDKIHHHHHHMNPCGFNKCYIQPSADLSVSLQIVSGKSRASISEIGSHMDSLQIDGLDILLHSYDGSPTHFGSAFLFPYANRVKDARYVMDGVEYRLPNNEGKNSIHGLVLDKNFSVISREEESITMETSIAGGEAYPSDLSVRISHSVDETSYRCEVTVINKGVKRSPIAAGFHPYFVYKNKWAIIKPETAWIMEYDGPFPTGKMDRMTFGDISYLNAYDNQFFADSDIIVDVGYSRLKITRNNMPFFVIYNGRYSAGSSVAIEPMMSAVDSFNNGIGLRLLNPGDTMKFGYSIDIV | not soluble
MLGTISMRFFATKVVAPRASVAASTPQVPLGMNINPYAMFIKENFKANTSDMKRTDLMKELSGKWKALSISEKDKYTELSKNYNAQKLDDFMKLSTEEQKKLVDSAKEKKAERASRRHAKERREKRKQSGRPSVPPSAYALFIKEKLSGAGMESKEKMKEAVAQWKAFTDSQKKKYTDEAKKLKDEYHVVLQKWEAEQKENADQ | not soluble
MGSDKIHHHHHHMKTYDWIVVGGGMTGAVLAYELVKTGFSVLLLEKDAVAENATRYSYGGLAYWSGSTPLTRQLCQEARDRYNILPQELDADIELRELDLLLTIPADSDPQVTAELYAQCAVPPCLLSVPEACELELLLNPGAIAGALTVKHGHIHPQKTVQAYIQAFLRAGGELQIGEVSQVTSGGVKTTTVTYHSANVVVCAGGLSRRLLKSVGVSIKVYFTHAEIIETPPVDLRLNTLVMPANLQRFKLESTSTEVDELWNKPGNQLAPPILDAGAIQFLDGSLRLGQISRVLTDVDAYINHEESEDWLRQSISHILPILGNLPGNWHHCLVAFSSNSLPVIGVISELPGVHIFSGFSNPLVLIPPLAQRFAKFLSGTEDDIIPQFSDFLILTGS | not soluble
YKEFKLKRVYYSGYIPINHEDHALPAVGSAPPLLRENRLYQSDWLMRFYGFAADEIVNPQHPNLDLDVDPKLGWALRHPEQFPVDINRADYRMILRVPGIGVRSAKKIMHARRFGALRIDQLKRMGVAYSRAQHFIYCID | not soluble
MVYTVDFKEVATIGLESSPVAPALAGLRANEARYFWNKYKHRFTTVPASEAPETLAWIEKILLERELHFPYKPLEISSFTLDGIKMAYVFYENGLAVNVMYTLAEEGKRAVGFKLSDGMAIPAEFEGKFKFARQKSKLAGTIRGSYFVIKGTY | soluble
MFCLETTFLIDLLRGRDEALKFYAKIRDSKLYTTSISAWELLRGPKLIGKDKEFEVAVELLESLDVLPFSFNSAKIAVEIEKDLREKGMEVNLIDVLIASVAMEHSLKLVTRDEHFSRIKGLEVERYRPE | soluble
RDLAVAILMDCSRSTEASVGERTVIDTAREALAALAAGIDVAGDRQAIWGFSSLRRDRVFLHLCKRFDEPMGPAVTARIGGLRPGHYTRLGAAIRHASARLNEEAASRKLLLVLTDGKPNDLDHYEGVHGIEDSRMAVREARALSQAVHGVVIDADGQDWFARIFGRAGFTLLPEPARLARALPDLYRSLTQEI | not soluble
MSLGSEGTSAKISISAIQVNANNPIEDRLLIQRMRLNLPGGENKDFVISAVIDGHGGWQVAEYVQNNFIRIFQKELSQYMSSLVREGSANESNPISQINETDIIAGLFYSLKKTYYILDEELKSKLEVAYNLGFSKLASVGACTTVSIITEDAILTANSGDCLSVYCNENGIWLPLNEQLSAMNPQEQKRLEEIHKHEKDNLIQCKQILHEKFLMGLYTIPKYRGCYVKGILQPSRAIGDFRLKSMDFNYNWEKDLSTEKLLPTFSYVLKDKESEQSKKEQHRENEDLNEDEFPYSYDLINGNNSINMRRDSYRYFVKNPLSFPYVRSEPMLHLFFYNSLNKNLSSTDNTSVEKISPNEYSEGHHHHHH | soluble
MGSDKIHHHHHHMEKIIITATAESIEQVKELLVAGVDRIYVGEADHALRIPTNFTYDELREIAELVHSAGKELTVAANALMHQDMMDNIKPFMELMREIKVDYLVVGDTGIFYINKRDGYNFKLIYDTSVFVTSSRQINFWKDHGAVEAVLAREIPSEELFDIAKNLEMPAEILVYGASVIHHSKRTLLQNYYNFTKADETDLSRGRGLFLAEPSDPDSHYSIFEDKHGTHIFINNDIDMMTKLSELDEHGYHNWKLDGIYCPGQNFVEIVKLFVQARDLIEKGEFTYDQAFLLDEQVRKLHPAERGLDTGFYEFDRNKVK | not soluble
MAILIPASFGRLTITSRAQVRVRVSASANQRTIRRDSVDWVKETSSFFEEDKRPIMLFDGVCNLCNGGVKFVRDHDRNRSIRFEALQSEAGKKLLLRSGRAPDDISSVVLVENDRSYIKSEAVLKIMKYIDLPFPQLAFFLQFAPLFVRDFLYENVANNRYAMFGRSDSCEL | soluble
MSQRGLEALLRPKSIAVIGASMKPNRAGYLMMRNLLAGGFNGPVLPVTPAWKAVLGVLAWPDIASLPFTPDLAVLCTNASRNLALLEELGEKGCKTCIILSAPASQHEDLRACALRHNMRLLGPNSLGLLAPWQGLNASFSPVPIKRGKLAFISQSAAVSNTILDWAQQREMGFSYFIALGDSLDIDVDELLDYLARDSKTSAILLYLEQLSDARRFVSAARSASRNKPILVIKSGRSPAAQRLLNTTAGMDPAWDAAIQRAGLLRVQDTHELFSAVETLSHMRPLRGDRLMIISNGAAPAALALDALWSRNGKLATLSEETCQKLRDALPGHVAISNPLDLRDDASSEHYVKTLDILLHSQDFDALMVIHSPSAAAPATEIAQVLIEAVKHHPRSKYVSLLTNWCGEHSSQEARRLFSEAGLPTYRTPEGTITAFMHMVEYRRNQKQLRETPALPSNLTSNTAKAHLLLQQAIAEGATSLDTHEVQPILQSYGMNTLPTWIASDSTEAVHIAEQIGYPVALKLRSPDIPHKSEVQGVMLYLRTANEVQQAANAIFDRVKMTWPQARVHGLLVQSMANRAGAQELRVVVEHDPVFGPLIMLGEGGVEWRPEDQAVVALPPLNMNLARYLVIQGIKSKKIRARSALRPLDVAGLSQLLVQVSNLIVDCPEIQRLDIHPLLASGSEFTALDVTLDIAPFEGDNESRLAVRPYPHQLEEWVELKNGERCLFRPILPEDEPQLQQFISRVTKEDLYYRYFSEINEFTHEDLANMTQIDYDREMAFVAVRRIDQTEEILGVTRAISDPDNIDAEFAVLVRSDLKGLGLGRRLMEKLITYTRDHGLQRLNGITMPNNRGMVALARKLGFNVDIQLEEGIVGLTLNLAQREES | not soluble
MSDSKCDSQFYSVQVADSTFTVLKRYQQLKPIGSGAQGIVCAAFDTVLGINVAVKKLSRPFQNQTHAKRAYRELVLLKCVNHKNIISLLNVFTPQKTLEEFQDVYLVMELMDANLCQVIHMELDHERMSYLLYQMLCGIKHLHSAGIIHRDLKPSNIVVKSDCTLKILDFGLARTACTNFMMTPYVVTRYYRAPEVILGMGYKENVDIWSVGCIMGELVKGCVIFQGTDHIDQWNKVIEQLGTPSAEFMKKLQPTVRNYVENRPKYPGIKFEELFPDWIFPSESERDKIKTSQARDLLSKMLVIDPDKRISVDEALRHPYITVWYDPAEAEAPPPQIYDAQLEEREHAIEEWKELIYKEVMDWEERSKNGVVKDQPSDAAVSSNATPSQSSSINDISSMSTEQTLASDTDSSLDASTGPLEGCR | soluble
MADSTITIRGYVRDNGCSVAAESTNFTVDLMENAAKQFNNIGATTPVVPFRILLSPCGNAVSAVKVGFTGVADSHNANLLALENTVSAASGLGIQLLNEQQNQIPLNAPSSALSWTTLTPGKPNTLNFYARLMATQVPVTAGHINATATFTLEYQDNHHHHHHKQADSTITIRGYVRDN | soluble
MAEPKSFNIPYRSKLTERIEPGQTLIIRGKTIDESKRFNINLHKDSPDFSGNDVPLHLSIRFDEGKIVYNAYTKGTWGKEERAKNPIKKGDDFDIRIRAHDSKFQVSINHKEVKNFEHRIPLNSVSHLSIDGDVVLNHVQWGGKYYPVPYESGIAADGLVPGKTLVVYGTPEKKAKKFNINLLKKNGDIALHFNPRFDEKANGFMCAKPTPGSVVRNSLVNGEWGNEEREGKNPFERLTAFDLEIRNEEFAFQIFVNGERFASYAHRVDPHDIAGLQIQGDIELTGIQVVNNQPAQE | not soluble
MGSDKIHHHHHHMPTPADDLVVIGKIVSVYGIRGEVKVYSFTDPLDNLLDYRRWTLRRDGEIRQAELVRGRLHGKVLAAKLKGLDDREEARTFTGYEICIPRSELPSLEEGEYYWHQLEGLKVIDQGRQLLGVIDHLLETGANDVMVVKPCAGSLDDRERLLPYTGQCVLSIDLAAGEMRVDWDADF | soluble
MTLKGRIHSFESFGTLDGPGIRFVVFMQGCPLRCIYCHNRDTWDVNAGSEYTPRQVIDEMMKYIDYIKVSGGGITVTGGEPVLQADFVAEVFRLAKEQGVHTALDTNGFADIEKVERLIKYTDLVLLDIKHAREDKHKIITGVSNEKIKRFALYLSDQGVPIWIRYVLVPGYTDDEDDLKMAADFIKKLKTVEKIEVLPYHNMGAYKWEKLGQKYMLEGVKGPSAQEVEKAKRILSGK | soluble
MSLSAHPVPHAPAAPVCLAPRPAVPPTAVTVPPGAWDCHAHVLGPADLYPMQAERSYTPPDSSAAQYAALLDTLGLRRGVLVQPSVYGTDNRLLAQAVARPEWRGIAVLDPAADTRQVAALHAAGVRGFRLNLLFPGGPGLDALERSAALVAPFGWHAQLLVDVRILPGIEHRLARLPVPVVFDHLGHFPYELGTDWPGFHALLRRVAAGRTYVKLSGSYRLSARASHIADVAPIAQALVREAPQRLVWGSDWPHVGRFQDMPATHALLDALALWCPDPAARRAILVDTPTQLYSEGHHHHHH | not soluble
